Here are results for 9 molecules from patent US20170342169A1 (published 2017).

Assay [1] deals with T1, human CD40 on cells (HEK293 transfectants, HEK-Blue CD40 reporter cells, human B cells, moDC, PBMC) (human, UniProt P25942 21-277). In words: cell-based or functional assay.
Assay [2] deals with CD40 (binding assays of Example 4; species and form not stated) (UniProt P25942 21-193, limits assumed). In words: antigen binding, method not stated.
A further assay deals with cynomolgus 4-1BB (cynomolgus). In words: SPR. (In general: SPR reads the build-up and loss of mass on a sensor chip optically.)
Assay [3] has as its target T2, MSLN (Table 10-1; species and form not stated).
T2 construct: also called mesothelin
Briefly: antigen binding, method not stated.

The target in assay [4] is T1, human CD40 on cells (HEK293 …). In words: cell-based or functional assay. The source holds these as a separate data set.

Sequence of CD40 (binding assays of Example 4; species and form not stated) (P25942 21-193 limits assumed): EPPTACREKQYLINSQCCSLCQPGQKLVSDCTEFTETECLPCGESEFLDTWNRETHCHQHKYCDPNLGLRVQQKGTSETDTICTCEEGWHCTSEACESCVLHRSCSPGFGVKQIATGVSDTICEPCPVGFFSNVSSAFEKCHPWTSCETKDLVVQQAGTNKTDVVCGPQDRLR
T1 sequence (P25942 21-277 limits assumed): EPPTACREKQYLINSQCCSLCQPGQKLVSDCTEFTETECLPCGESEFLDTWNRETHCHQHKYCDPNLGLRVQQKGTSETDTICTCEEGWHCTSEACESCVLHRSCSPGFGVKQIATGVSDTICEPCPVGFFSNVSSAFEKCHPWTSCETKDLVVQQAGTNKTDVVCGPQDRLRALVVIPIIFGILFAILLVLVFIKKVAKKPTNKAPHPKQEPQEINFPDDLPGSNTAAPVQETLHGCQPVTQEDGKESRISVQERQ
T2 sequence (Q13421 37-606): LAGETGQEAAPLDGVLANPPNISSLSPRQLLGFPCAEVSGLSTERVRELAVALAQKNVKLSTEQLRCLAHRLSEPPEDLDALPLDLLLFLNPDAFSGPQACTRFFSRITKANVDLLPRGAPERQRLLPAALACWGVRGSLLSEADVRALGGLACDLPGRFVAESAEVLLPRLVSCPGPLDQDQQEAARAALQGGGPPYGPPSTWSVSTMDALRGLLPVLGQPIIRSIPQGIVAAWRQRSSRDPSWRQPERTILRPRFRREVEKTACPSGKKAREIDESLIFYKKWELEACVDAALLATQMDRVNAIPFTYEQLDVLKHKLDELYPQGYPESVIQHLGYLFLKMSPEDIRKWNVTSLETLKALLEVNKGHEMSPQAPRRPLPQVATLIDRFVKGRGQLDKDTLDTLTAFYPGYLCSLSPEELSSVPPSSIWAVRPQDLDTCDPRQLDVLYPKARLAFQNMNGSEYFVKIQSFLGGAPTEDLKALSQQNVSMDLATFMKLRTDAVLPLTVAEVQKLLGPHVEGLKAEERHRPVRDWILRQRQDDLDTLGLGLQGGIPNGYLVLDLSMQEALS

B1: huAb8-1 (antibody, human IgG1, V domains shown)
VH: EVQLVQSGAEVKKPGSSVKVSCKASGYTFTDYYINWVRQAPGQGLEWIGWIFPGSGSVYCNEQFKGRATLTVDRSTSTAYMELSSLRSEDTAVYFCASSLGKFAYWGQGTLVTVSS
VL: DIQMTQSPSSLSASVGDRVTITCKASQSVVTAVAWYQQKPGKSPKLLIYSASNRYTGVPSRFSGSGSGTDFTLTISSLQPEDFATYFCQQYSSYPYTFGGGTKVEIK
As usually defined, the EC50 is the concentration that produces a half-maximal response. High values mean lower potency in that assay, low ones higher potency in that assay. In the case of B1, the “Maximal activation (OD655)” value in assay [1] is 0.45 OD655. Further, a half-maximal response in assay [2] (EC50) required 0.4 µg/mL.

B2: B39 (bispecific antibody, IgG2)
chain: EVQLQESGPGLVKPSETLSLTCTVSGYSITSNYYWNWIRQPPGKGLEWMGYIRYDGSNNYNPSLKNRVTISRDTSKNQFSLKLSSVTAADTAVYYCARLDYWGQGTTVTVSSDLSGGGGSGGGGSGGGGSGGGGSTGDAVMTQTPLSLSVTPGQPASISCRSSQSLENTNGNTFLNWYLQKPGQSPQLLIYRVSNRFSGVPDRFSGSGSGTDFTLKISRVEAEDVGVYYCLQVTHVPFTFGQGTKLEIKRVERKSSVECPPCPAPPVAGPSVFLFPPKPKDTLMISRTPEVTCVVVDVSHEDPEVQFNWYVDGVEVHNAKTKPREEQFNSTFRVVSVLTVVHQDWLNGKEYKCKVSNKGLPAPIEKTISKTKGQPREPQVYTLPPSREEMTKNQVSLTCLVKGFYPSDIAVEWESNGQPENNYKTTPPMLDSDGSFFLYSKLTVDKSRWQQGNVFSCSVMHEALHNHYTQKSLSLSPGKVDGASSPVNVSSPSVQDIEVQLVQSGAEVKKPGASVKVSCKASGDTFKRYYVHWVRQAPGQGLEWMGIINPSGVSTTYAQKFQGRVTMTRDTSTSTVYMELSSLRSEDTAVYYCAEVRGSGFNYFGMDVWGQGTLVTVSSDLSGGGGSGGGGSGGGGSGGGGSTGSYELTQPPSVSVSPGQTASITCSGDKLGDKYASWYQQKPGQSPVLVIYQDNRRPSGIPERFSGSNSGNTATLTISGTQAMDEADYYCQAWDSDTYVFGTGTKVTVLGQ
notes: huAb9-5 (VH-VL) N-terminal, HuAM15 (VH-VL) C-terminal, huIgG2
Turning to B2, a half-maximal effect in assay [2] (EC50) was put at 0.5 µg/mL.

B3: TABBY107-rIgG1 (antibody, V domains shown)
VH: QVKLVQSGAALVKPGASVKMSCKASDYTFNDYWVSWVKQRHGESLEWIGEIYPNSGATNFNGKFRGKATLTVDNPTSTAYMELSRLTSEDSAIYYCTREYTRDWFAYWGQGTLVTVSS
VL: DVVLTQTPSILSATIGQSVSISCRSSQSLLDSDGNTYLYWFLQRPGQSPQRLIYLVSNLGSGVPNRFSGSGSGTDFTLKISGVEAEDLGIYYCMQPTHAPYTFGAGTKLELK
notes: Rat IgG1, kappa
Broadly, the Kd is the concentration at which binding is half-saturated. In general, koff refers to the rate constant with which the complex falls apart. A high value points to a short-lived complex. The term kon denotes the rate constant with which the complex forms. A higher kon goes with fast association. In the assay with cynomolgus 4-1BB, B3 showed a Kd of 0.36 nM, a dissociation rate constant (koff) of 0.00013 s⁻¹ and a kon of 350000 M⁻¹ s⁻¹.

B4: LB-1 (bispecific antibody, mouse IgG1)
chain: EVQLVESGGGLVQPGRSLKLSCAASGFTFSNYDMAWVRQAPTKGLEWVASISPSGGRTYYRDSVKGRFTVSRDNAKSTLYLQMDSLRSEDTATYYCARHDGSYFDYWGQGVMVTVSSDLSGGGGSGGGGSGGGGSGGGGSTGDTVLTQSPALAVSPGERVTISCRASESVSTLMHWYQQKPGQQPKLLIYLASHLESGVPARFSGSGSGTDFTLTIDPVEADDTATYYCQESWNDPWTFGGGTKLELKRLEVPRDSGSKPCICTVPEVSSVFIFPPKPKDVLTITLTPKVTCVVVDISKDDPEVQFSWFVDDVEVHTAQTQPREEQFNSTFRSVSELPIMHQDWLNGKEFKCRVNSAAFPAPIEKTISKTKGRPKAPQVYTIPPPKEQMAKDKVSLTCMITDFFPEDITVEWQWNGQPAENYKNTQPIMDTDGSYFVYSKLNVQKSNWEAGNTFTCSVLHEGLHNHHTEKSLSHSPGKVDGASSPVNVSSPSVQDIQVQLVQSGAEVKKPGASVKVSCKASGYTFTGNYINWVRQAPGQGLEWMGIINPTKGWTLYAQKFQGRVTMTRDTSISTAYMELSSLRSEDTAVYYCARWHHGTWIFDYWGQGTLVTVSSDLSGGGGSGGGGSGGGGSGGGGSTGDIVLTQPPSVSGAPGQRVTISCSGSSSNIGSNYVSWYQQLPGTAPKLLIYNDNQRPSGVPDRFSGSKSGTSASLAITGLQSEDEADYYCSTYDRRTFSVFGGGTKLTVLG
notes: 1C10 scFv (VH-VL), murine IgG1 hinge-CH2-CH3, MOR06626 scFv (VH-VL)
The molecule B4 showed an EC50 in assay [3] of 1.39 µg/mL.

B5: CF1 (bispecific antibody, human IgG1, lambda)
heavy: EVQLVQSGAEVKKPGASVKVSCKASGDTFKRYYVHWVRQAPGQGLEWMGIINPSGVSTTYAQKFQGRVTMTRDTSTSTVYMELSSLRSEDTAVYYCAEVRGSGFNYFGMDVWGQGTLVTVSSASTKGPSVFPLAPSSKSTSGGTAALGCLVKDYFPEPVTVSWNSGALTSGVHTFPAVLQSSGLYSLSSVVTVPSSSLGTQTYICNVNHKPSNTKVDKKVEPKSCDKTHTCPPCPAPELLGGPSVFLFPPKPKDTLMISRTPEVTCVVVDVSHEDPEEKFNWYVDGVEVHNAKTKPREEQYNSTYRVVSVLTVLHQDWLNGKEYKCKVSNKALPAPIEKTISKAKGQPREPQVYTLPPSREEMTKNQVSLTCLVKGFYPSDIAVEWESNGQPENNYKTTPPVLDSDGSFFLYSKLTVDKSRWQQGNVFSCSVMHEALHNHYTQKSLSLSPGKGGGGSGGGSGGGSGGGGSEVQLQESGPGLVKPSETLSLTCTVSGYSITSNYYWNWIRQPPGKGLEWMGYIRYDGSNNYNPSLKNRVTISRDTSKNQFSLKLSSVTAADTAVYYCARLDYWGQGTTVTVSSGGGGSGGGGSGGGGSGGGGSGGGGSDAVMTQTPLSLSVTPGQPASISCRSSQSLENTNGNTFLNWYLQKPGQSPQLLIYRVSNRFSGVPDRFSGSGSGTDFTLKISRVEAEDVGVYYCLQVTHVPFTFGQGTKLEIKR
light: SYELTQPPSVSVSPGQTASITCSGDKLGDKYASWYQQKPGQSPVLVIYQDNRRPSGIPERFSGSNSGNTATLTISGTQAMDEADYYCQAWDSDTYVFGTGTKVTVLGQPKAAPSVTLFPPSSEELQANKATLVCLISDFYPGAVTVAWKADSSPVKAGVETTTPSKQSNNKYAASSYLSLTPEQWKSHRSYSCQVTHEGSTVEKTVAPTECS
On to B5, for which the “Max. IL-12p70, dendritic cells” value in assay [4] is 100 pg/mL.

B6: CF3 (bispecific antibody, human IgG1, lambda)
heavy: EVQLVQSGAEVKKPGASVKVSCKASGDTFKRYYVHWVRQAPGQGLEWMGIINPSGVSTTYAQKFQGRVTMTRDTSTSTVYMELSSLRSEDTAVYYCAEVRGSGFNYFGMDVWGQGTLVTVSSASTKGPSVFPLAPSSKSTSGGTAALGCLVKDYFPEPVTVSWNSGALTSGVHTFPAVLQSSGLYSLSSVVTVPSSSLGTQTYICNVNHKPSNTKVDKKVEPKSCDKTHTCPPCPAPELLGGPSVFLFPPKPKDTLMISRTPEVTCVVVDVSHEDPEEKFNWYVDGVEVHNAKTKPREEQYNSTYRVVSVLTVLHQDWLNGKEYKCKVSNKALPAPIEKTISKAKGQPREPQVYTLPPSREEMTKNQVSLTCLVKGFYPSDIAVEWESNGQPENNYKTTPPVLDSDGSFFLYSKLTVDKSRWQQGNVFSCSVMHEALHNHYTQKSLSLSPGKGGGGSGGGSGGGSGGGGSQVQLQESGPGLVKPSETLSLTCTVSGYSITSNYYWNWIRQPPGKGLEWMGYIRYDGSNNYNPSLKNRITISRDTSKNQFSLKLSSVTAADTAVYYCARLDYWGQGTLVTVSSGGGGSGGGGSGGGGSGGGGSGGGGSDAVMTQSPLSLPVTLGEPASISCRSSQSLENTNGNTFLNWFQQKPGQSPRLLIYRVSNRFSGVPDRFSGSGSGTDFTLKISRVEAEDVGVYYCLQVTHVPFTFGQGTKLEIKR
light: SYELTQPPSVSVSPGQTASITCSGDKLGDKYASWYQQKPGQSPVLVIYQDNRRPSGIPERFSGSNSGNTATLTISGTQAMDEADYYCQAWDSDTYVFGTGTKVTVLGQPKAAPSVTLFPPSSEELQANKATLVCLISDFYPGAVTVAWKADSSPVKAGVETTTPSKQSNNKYAASSYLSLTPEQWKSHRSYSCQVTHEGSTVEKTVAPTECS
B6: the “Max. IL-12p70, dendritic cells” value in assay [4] worked out at 75 pg/mL.

B7: huAb9-5 (antibody, human IgG1, kappa)
heavy: not shown
light: DAVMTQTPLSLSVTPGQPASISCRSSQSLENTNGNTFLNWYLQKPGQSPQLLIYRVSNRFSGVPDRFSGSGSGTDFTLKISRVEAEDVGVYYCLQVTHVPFTFGQGTKLEIKRTVAAPSVFIFPPSDEQLKSGTASVVCLLNNFYPREAKVQWKVDNALQSGNSQESVTEQDSKDSTYSLSSTLTLSKADYEKHKVYACEVTHQGLSSPVTKSFNRGEC
notes: human IgG1, kappa
For the molecule B7, in assay [1], the “Maximal activation (OD655)” value is 0.67 OD655. A half-maximal response in assay [2] (EC50) required 0.2 µg/mL.

B8: anti-MSLN antibody (MOR06626 mIgG1) (antibody, V domains shown)
VH: QVQLVQSGAEVKKPGASVKVSCKASGYTFTGNYINWVRQAPGQGLEWMGIINPTKGWTLYAQKFQGRVTMTRDTSISTAYMELSSLRSEDTAVYYCARWHHGTWIFDYWGQGTLVTVSS
VL: DIVLTQPPSVSGAPGQRVTISCSGSSSNIGSNYVSWYQQLPGTAPKLLIYNDNQRPSGVPDRFSGSKSGTSASLAITGLQSEDEADYYCSTYDRRTFSVFGGGTKLTVLG
Take B8: the response in assay [3] was half-maximal at 0.06 µg/mL (EC50).

B9: TABBY106-rIgG1 (antibody, V domains shown)
VH: QVQLQQSGAELAKPGTSVKLSCKASGYTFTSYYIYWVKQRPGQGLEWIGNIWPGNGGTFYGEKFMGKATFTADTSSSTAYMLLGSLTPEDSAYYFCARRPDYSGDDYFDYWGQGVLVTVSS
VL: QVVLTQPKSVSTSLKSTVKLSCKLNSGNIGSYYVHWYQQHAGRSPTTMIYRDDKRPDGVPDRFSGSIDSSSNSAFLTINNVQTEDDAIYFCHSYDSTITPVFGGGTKLTVL
notes: Rat IgG1, lambda
In the assay with cynomolgus 4-1BB, B9 registered an equilibrium dissociation constant (Kd) of 18 nM, a koff of 0.022 s⁻¹ and an association rate constant (kon) of 1.2e+06 M⁻¹ s⁻¹.
